T1: ASK1 (Homo sapiens, UniProt Q99683)
T1 sequence (Q99683 1-1374): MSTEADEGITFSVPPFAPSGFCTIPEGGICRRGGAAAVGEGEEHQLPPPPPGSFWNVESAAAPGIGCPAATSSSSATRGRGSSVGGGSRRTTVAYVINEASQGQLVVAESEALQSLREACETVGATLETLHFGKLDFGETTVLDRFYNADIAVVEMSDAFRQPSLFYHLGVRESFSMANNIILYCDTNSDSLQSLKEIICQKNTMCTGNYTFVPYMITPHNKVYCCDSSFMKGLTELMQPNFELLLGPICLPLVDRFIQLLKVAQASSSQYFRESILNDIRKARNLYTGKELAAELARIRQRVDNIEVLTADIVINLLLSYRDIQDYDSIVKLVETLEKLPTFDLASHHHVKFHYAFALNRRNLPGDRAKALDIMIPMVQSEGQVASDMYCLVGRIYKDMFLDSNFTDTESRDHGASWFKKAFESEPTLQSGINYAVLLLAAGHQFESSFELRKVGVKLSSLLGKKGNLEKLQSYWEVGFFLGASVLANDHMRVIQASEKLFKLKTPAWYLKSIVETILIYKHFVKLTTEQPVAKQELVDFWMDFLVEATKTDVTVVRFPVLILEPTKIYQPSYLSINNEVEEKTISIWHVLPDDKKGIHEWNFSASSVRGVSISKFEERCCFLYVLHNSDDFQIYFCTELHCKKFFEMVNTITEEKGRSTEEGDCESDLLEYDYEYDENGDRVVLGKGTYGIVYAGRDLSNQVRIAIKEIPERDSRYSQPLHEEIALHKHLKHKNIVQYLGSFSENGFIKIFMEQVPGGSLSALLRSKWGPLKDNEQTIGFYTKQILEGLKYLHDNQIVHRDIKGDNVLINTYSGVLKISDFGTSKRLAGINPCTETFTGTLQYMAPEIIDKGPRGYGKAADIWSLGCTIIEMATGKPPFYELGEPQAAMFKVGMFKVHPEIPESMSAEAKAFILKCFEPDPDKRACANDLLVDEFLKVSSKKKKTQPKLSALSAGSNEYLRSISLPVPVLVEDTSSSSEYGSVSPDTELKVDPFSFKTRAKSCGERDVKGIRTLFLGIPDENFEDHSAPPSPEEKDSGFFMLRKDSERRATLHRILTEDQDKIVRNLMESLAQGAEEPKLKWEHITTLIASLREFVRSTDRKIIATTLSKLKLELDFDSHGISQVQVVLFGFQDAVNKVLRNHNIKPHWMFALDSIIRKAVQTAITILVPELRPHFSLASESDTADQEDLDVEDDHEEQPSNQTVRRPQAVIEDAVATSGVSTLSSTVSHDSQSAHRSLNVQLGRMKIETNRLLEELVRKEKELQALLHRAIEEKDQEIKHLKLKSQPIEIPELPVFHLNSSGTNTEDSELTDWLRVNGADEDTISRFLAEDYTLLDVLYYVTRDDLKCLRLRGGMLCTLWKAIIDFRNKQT


Molecular target: T1, ASK1
Assay: Kinase assay of immunoprecipitated FLAG-ASK1 with recombinant Gadd45β proteins
Assay type: biochemical
Parameters: expressed in transfected cells; host or cells: HEK-293; anti-FLAG immunoprecipitate
Conditions: in vitro, even at high concentrations
Experimental: Next, the functional consequences, in vitro, of the physical interactions of Gadd45β with kinases in the JNK pathway were assessed. Murine and human, full-length Gadd45J3 proteins were purified from E. coli as GST-Gadd45β and His6-tagged Gadd45β (His6 disclosed as SEQ ID NO: 46), respectively, according to standard procedures. Prior to employing these proteins in in vitro assays, purity of all recombinant polypeptides was assured by >98%, by performing Coomassie blue staining of SDS polyacrylamide gels. Then, the ability of these proteins, as well as of control GST and His6-EF3 (His6 disclosed as SEQ ID NO: 46)proteins, to inhibit kinases in the JNK pathways was monitored in vitro. FLAG-tagged JNKK2, JNKK1, MKK3, and ASK1 were immunoprecipitated from transiently transfected 293 cells using anti-FLAG antibodies and pre-incubated for 10 minutes with increasing concentrations of recombinant proteins, prior to the addition of specific kinase substrates (i.e. GST-JNK1 with JNKK1 and JNKK2; GST-p38[…] with MKK3; GST-JNNK1 or GST-JNKK2 with ASK1). […] These findings indicate that, upon binding to Gadd45β, JNKK2 is effectively inactivated.
A question was whether Gadd45β inhibited active MKK7, in vitro. FLAG-MKK7 was immunoprecipitated from TNFα-treated or untreated 293 cells, and kinase assays were performed in the presence of purified His6-Gadd45β (His6 disclosed as SEQ ID NO: 46), GST-Gadd45β, or control proteins (FIG. 28d; see also FIG. 28g). […] Consistent with the in vivo findings (FIG. 27), the inhibitory activity of Gadd45β was specific. […] Indeed, the effects of Gadd45β on MKK7 phosphorylation by TNFα may be due inhibition of the MKK7 ability to auto-phoshorylate and/or to serve as substrate for upstream kinases. Altogether, the findings identify MKK7 as a target of Gadd45β, and of NF-[…]B, in the JNK cascade. Of interest, MKK7 is a selective activator of JNK, and its ablation abolishes JNK activation by TNFα. Thus, blockade of MKK7 is sufficient on its own to explain the effects of Gadd45β on JNK signaling—i.e. its specific and near-complete suppression of this signaling. […]

Molecule	effect on ASK1 kinase activity
GST-Gadd45β: full-length murine Gadd45β directly fused to GST, purified from E. coli (protein, left off: a dimerising Fc or GST, full-length murine Gadd45β directly fused to GST, purified from E. coli) MTLEELVASDNAVQKMQAVTAAVEQLLVAAQRQDRLTVGVYEAAKLMNVDPDSVVLCLLAIDEEEEDDIALQIHFTLIQSFCCDNDIDIVRVSGMQRLAQLLGEPAETLGTTEARDLHCLLVTNCHTDSWKSQGLVEVASYCEESRGNNQWVPYISLEER	neither GST-Gadd45β nor His6-Gadd45β (His6 disclosed as SEQ ID NO: 46) had significant effects
Gadd45β: purified recombinant His6-tagged Gadd45β protein; also used generically for the recombinant Gadd45β proteins (protein, UniProt O75293 1-160, looked up, His6 tag, purified recombinant His6-tagged Gadd45β protein; also used generically for the recombinant Gadd45β proteins) Growth arrest and DNA …: MTLEELVACDNAAQKMQTVTAAVEELLVAAQRQDRLTVGVYESAKLMNVDPDSVVLCLLAIDEEEEDDIALQIHFTLIQSFCCDNDINIVRVSGMQRLAQLLGEPAETQGTTEARDLHCLLVTNPHTDAWKSHGLVEVASYCEESRGNNQWVPYISLQER	did not hamper
His6-Gadd45β: human full-length Gadd45β purified from E. coli as His6-tagged protein (protein, UniProt O75293 1-160, looked up, full-length His6 tag, human full-length Gadd45β purified from E. coli as His6-tagged protein) MTLEELVACDNAAQKMQTVTAAVEELLVAAQRQDRLTVGVYESAKLMNVDPDSVVLCLLAIDEEEEDDIALQIHFTLIQSFCCDNDINIVRVSGMQRLAQLLGEPAETQGTTEARDLHCLLVTNPHTDAWKSHGLVEVASYCEESRGNNQWVPYISLQER	neither GST-Gadd45β nor His6-Gadd45β (His6 disclosed as SEQ ID NO: 46) had significant effects
